Measurements reported in publication PMC10447908 (2023).

B1: Xiang-Liu 1 (designed binder)
chain: NDDELHMLMTDLVYEALHFAKDEEIKKRVFQLFELADKAYKNNDRQKLEKVVEELKELLERLLSEEDPCACESILKFEAKVEGLLQALTRKLEAVSGRLAVLENRIIDKEWILQKIYEIMRLLDELGHAEASMRVSDLIYEFMKKGDERLLEEAERLLEEVER
B2: Xiang-Liu 2 (designed binder)
chain: NDDELHMLMTDLVYEALHFAKDEEIKKRVFQLFELADKAYKNNDRQKLEKVVEELKELLERLLSEEDPCACESILKFEAKVEGLLQALTRKLEAVSGRLAVLENRIIQVQLVESGGGLVQAGGSLRLSCAASGRTFSNDALGWFRQAPRKEREFVAAINWNSGTYYADSVKGRFTISRDNAKNTVYLQMNSLKPEDTAVYSCAAASDYGLPREDFLYDYWGQGTQVTVSS

Legend:
Assay in all cases: FACS
[1] = target: SARS-CoV-2 Spike receptor binding domain, Wuhan (ancestral) variant (SARS-CoV-2, UniProt P0DTC2, biotinylated in vitro when needed)
[2] = target: SARS-CoV-2 Spike receptor binding domain, Omicron variant (SARS-CoV-2, UniProt P0DTC2, biotinylated in vitro when needed)
[3] = target: SARS-CoV-2 Spike receptor binding domain, Delta variant (SARS-CoV-2, UniProt P0DTC2, biotinylated in vitro when needed)

Row | Binder | IC50 [1] | IC50 [2] | IC50 [3]
1 | B1 | 9.3 nM | 36.4 nM | 5.1 nM
2 | B2 | 12.6 nM | 5.2 nM | 6.8 nM
